In article PMC4434323:

Tests used:
[1] = molecular target: T1, hlh-12 (C28C12.8) (Caenorhabditis elegans) (UniProt Q18277)
T1 sequence: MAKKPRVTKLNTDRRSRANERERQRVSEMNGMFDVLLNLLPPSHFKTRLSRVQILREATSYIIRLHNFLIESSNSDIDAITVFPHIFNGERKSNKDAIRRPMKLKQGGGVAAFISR

[2] = molecular target: T2, mbr-1 (T01C1.2) (Caenorhabditis elegans) (UniProt G5EGQ5)
T2 sequence: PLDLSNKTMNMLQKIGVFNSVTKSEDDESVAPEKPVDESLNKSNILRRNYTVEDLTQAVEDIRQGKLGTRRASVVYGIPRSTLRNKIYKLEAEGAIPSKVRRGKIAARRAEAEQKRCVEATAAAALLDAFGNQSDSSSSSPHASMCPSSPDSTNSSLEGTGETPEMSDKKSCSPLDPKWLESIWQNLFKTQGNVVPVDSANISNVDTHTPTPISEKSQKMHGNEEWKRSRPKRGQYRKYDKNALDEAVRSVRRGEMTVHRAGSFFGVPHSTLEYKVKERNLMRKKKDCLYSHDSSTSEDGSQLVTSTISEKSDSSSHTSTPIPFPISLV

[3] = molecular target: T3, nhr-142 (F44E7.8) (Caenorhabditis elegans) (UniProt J7SF93)
T3 sequence: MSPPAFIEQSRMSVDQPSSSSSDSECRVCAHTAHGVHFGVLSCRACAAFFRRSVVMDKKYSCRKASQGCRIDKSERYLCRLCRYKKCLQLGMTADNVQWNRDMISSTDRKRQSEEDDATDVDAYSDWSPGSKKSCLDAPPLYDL

[4] = molecular target: T4, nhr-232 (Y22F5A.1) (Caenorhabditis elegans) (UniProt A0A486WVR6)
T4 sequence: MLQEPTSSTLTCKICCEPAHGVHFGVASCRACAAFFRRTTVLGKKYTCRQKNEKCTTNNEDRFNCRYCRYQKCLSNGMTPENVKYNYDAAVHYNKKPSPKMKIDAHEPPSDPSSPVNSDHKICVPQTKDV

[5] = molecular target: T5, nhr-42 (C33G8.6) (Caenorhabditis elegans) (UniProt O76828)
T5 sequence: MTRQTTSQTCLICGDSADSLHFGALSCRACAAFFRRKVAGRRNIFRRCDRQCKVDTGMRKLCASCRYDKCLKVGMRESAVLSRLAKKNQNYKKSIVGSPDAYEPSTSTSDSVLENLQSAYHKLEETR

[6] = molecular target: T6, skn-1 (T19E7.2) (Caenorhabditis elegans) (UniProt P34707)
T6 sequence: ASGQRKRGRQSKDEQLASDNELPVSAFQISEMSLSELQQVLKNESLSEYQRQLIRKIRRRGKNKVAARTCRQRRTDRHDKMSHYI

[7] = molecular target: T7, nhr-70 (Y51A2D.17) (Caenorhabditis elegans) (UniProt G5EEL3)
T7 sequence: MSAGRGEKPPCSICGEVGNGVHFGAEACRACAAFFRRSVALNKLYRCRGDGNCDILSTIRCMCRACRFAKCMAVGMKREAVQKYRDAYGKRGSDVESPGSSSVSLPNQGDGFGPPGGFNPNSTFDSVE

[8] = molecular target: T8, odr-7 (T18D3.2) (Caenorhabditis elegans) (UniProt P41933)
T8 sequence: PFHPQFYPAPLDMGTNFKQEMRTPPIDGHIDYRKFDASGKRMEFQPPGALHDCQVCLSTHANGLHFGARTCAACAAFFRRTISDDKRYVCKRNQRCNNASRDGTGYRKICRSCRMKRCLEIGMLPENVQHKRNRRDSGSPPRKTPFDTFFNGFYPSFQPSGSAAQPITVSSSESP

[9] = molecular target: T9, nhr-66 (T09A12.4) (Caenorhabditis elegans) (UniProt H2KYJ8)
T9 sequence: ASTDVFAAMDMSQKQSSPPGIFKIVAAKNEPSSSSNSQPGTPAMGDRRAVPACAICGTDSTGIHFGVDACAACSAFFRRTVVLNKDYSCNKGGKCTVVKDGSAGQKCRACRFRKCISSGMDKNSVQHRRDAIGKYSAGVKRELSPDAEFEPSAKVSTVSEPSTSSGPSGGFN

ACAGCTGT (double strand) [8-mer ACAGCTGT]
binding signal (PBM E-score (-0.5 to 0.5)) [1]: 0.496

AGGCCCCC (double strand) [8-mer AGGCCCCC]
binding signal (PBM E-score (-0.5 to 0.5)) [2]: 0.495

GAGGGGCC (double strand) [8-mer GAGGGGCC]
binding signal (PBM E-score (-0.5 to 0.5)) [2]: 0.489

ACATATGT (double strand) [8-mer ACATATGT]
binding signal (PBM E-score (-0.5 to 0.5)) [1]: 0.476

TAGTCACA (double strand) [8-mer TAGTCACA]
binding signal (PBM E-score (-0.5 to 0.5)) [3]: 0.493 | binding signal (PBM E-score (-0.5 to 0.5)) [4]: 0.482 | binding signal (PBM E-score (-0.5 to 0.5)) [5]: 0.494

GATGATAA (double strand) [8-mer GATGATAA]
binding signal (PBM E-score (-0.5 to 0.5)) [6]: 0.488

TGTCACAA (double strand) [8-mer TGTCACAA]
binding signal (PBM E-score (-0.5 to 0.5)) [3]: 0.49 | binding signal (PBM E-score (-0.5 to 0.5)) [4]: 0.474

GCTACAAC (double strand) [8-mer GCTACAAC]
binding signal (PBM E-score (-0.5 to 0.5)) [7]: 0.483

GGGGCCAA (double strand) [8-mer GGGGCCAA]
binding signal (PBM E-score (-0.5 to 0.5)) [2]: 0.488

AAGTCACA (double strand) [8-mer AAGTCACA]
binding signal (PBM E-score (-0.5 to 0.5)) [3]: 0.496 | binding signal (PBM E-score (-0.5 to 0.5)) [4]: 0.498 | binding signal (PBM E-score (-0.5 to 0.5)) [5]: 0.494

GGCTACAA (double strand) [8-mer GGCTACAA]
binding signal (PBM E-score (-0.5 to 0.5)) [7]: 0.492 | binding signal (PBM E-score (-0.5 to 0.5)) [8]: 0.467

GATGACTA (double strand) [8-mer GATGACTA]
binding signal (PBM E-score (-0.5 to 0.5)) [6]: 0.489

ATATCATC (double strand) [8-mer ATATCATC]
binding signal (PBM E-score (-0.5 to 0.5)) [6]: 0.485

TGATGACA (double strand) [8-mer TGATGACA]
binding signal (PBM E-score (-0.5 to 0.5)) [6]: 0.495

ACCAGCTG (double strand) [8-mer ACCAGCTG]
binding signal (PBM E-score (-0.5 to 0.5)) [1]: 0.456

GTCACACA (double strand) [8-mer GTCACACA]
binding signal (PBM E-score (-0.5 to 0.5)) [4]: 0.46

AGTCATAA (double strand) [8-mer AGTCATAA]
binding signal (PBM E-score (-0.5 to 0.5)) [3]: 0.491 | binding signal (PBM E-score (-0.5 to 0.5)) [4]: 0.48

GGATGACA (double strand) [8-mer GGATGACA]
binding signal (PBM E-score (-0.5 to 0.5)) [6]: 0.489

AGGATGAC (double strand) [8-mer AGGATGAC]
binding signal (PBM E-score (-0.5 to 0.5)) [6]: 0.489

AGTCATCA (double strand) [8-mer AGTCATCA]
binding signal (PBM E-score (-0.5 to 0.5)) [6]: 0.491

AACATCTG (double strand) [8-mer AACATCTG]
binding signal (PBM E-score (-0.5 to 0.5)) [1]: 0.481

AGGGGGGC (double strand) [8-mer AGGGGGGC]
binding signal (PBM E-score (-0.5 to 0.5)) [2]: 0.491

AAGGCCCC (double strand) [8-mer AAGGCCCC]
binding signal (PBM E-score (-0.5 to 0.5)) [2]: 0.489

GGACACAA (double strand) [8-mer GGACACAA]
binding signal (PBM E-score (-0.5 to 0.5)) [3]: 0.493 | binding signal (PBM E-score (-0.5 to 0.5)) [4]: 0.473

AGGCCCCT (double strand) [8-mer AGGCCCCT]
binding signal (PBM E-score (-0.5 to 0.5)) [2]: 0.491

AGACTACA (double strand) [8-mer AGACTACA]
binding signal (PBM E-score (-0.5 to 0.5)) [9]: 0.487 | binding signal (PBM E-score (-0.5 to 0.5)) [7]: 0.486

GATGACAA (double strand) [8-mer GATGACAA]
binding signal (PBM E-score (-0.5 to 0.5)) [6]: 0.498

CGGGGGGC (double strand) [8-mer CGGGGGGC]
binding signal (PBM E-score (-0.5 to 0.5)) [2]: 0.487

ATTGTGAC (double strand) [8-mer ATTGTGAC]
binding signal (PBM E-score (-0.5 to 0.5)) [3]: 0.494 | binding signal (PBM E-score (-0.5 to 0.5)) [4]: 0.489

ATGTCATC (double strand) [8-mer ATGTCATC]
binding signal (PBM E-score (-0.5 to 0.5)) [6]: 0.494

CACAGCTG (double strand) [8-mer CACAGCTG]
binding signal (PBM E-score (-0.5 to 0.5)) [1]: 0.475

AGTCACAG (double strand) [8-mer AGTCACAG]
binding signal (PBM E-score (-0.5 to 0.5)) [3]: 0.492 | binding signal (PBM E-score (-0.5 to 0.5)) [4]: 0.465

AGTCACAC (double strand) [8-mer AGTCACAC]
binding signal (PBM E-score (-0.5 to 0.5)) [3]: 0.49 | binding signal (PBM E-score (-0.5 to 0.5)) [4]: 0.48 | binding signal (PBM E-score (-0.5 to 0.5)) [5]: 0.489

GACACAAA (double strand) [8-mer GACACAAA]
binding signal (PBM E-score (-0.5 to 0.5)) [4]: 0.475

ATGACAAT (double strand) [8-mer ATGACAAT]
binding signal (PBM E-score (-0.5 to 0.5)) [6]: 0.495

GGTCACAA (double strand) [8-mer GGTCACAA]
binding signal (PBM E-score (-0.5 to 0.5)) [3]: 0.495 | binding signal (PBM E-score (-0.5 to 0.5)) [4]: 0.485

ATGACAAA (double strand) [8-mer ATGACAAA]
binding signal (PBM E-score (-0.5 to 0.5)) [6]: 0.493

ACTACAAT (double strand) [8-mer ACTACAAT]
binding signal (PBM E-score (-0.5 to 0.5)) [9]: 0.488 | binding signal (PBM E-score (-0.5 to 0.5)) [7]: 0.49 | binding signal (PBM E-score (-0.5 to 0.5)) [8]: 0.49

GGCTACAC (double strand) [8-mer GGCTACAC]
binding signal (PBM E-score (-0.5 to 0.5)) [7]: 0.487

AAGGGGCC (double strand) [8-mer AAGGGGCC]
binding signal (PBM E-score (-0.5 to 0.5)) [2]: 0.487

ATGATGAC (double strand) [8-mer ATGATGAC]
binding signal (PBM E-score (-0.5 to 0.5)) [6]: 0.497

TGGCTACA (double strand) [8-mer TGGCTACA]
binding signal (PBM E-score (-0.5 to 0.5)) [7]: 0.48

GCCCCCCA (double strand) [8-mer GCCCCCCA]
binding signal (PBM E-score (-0.5 to 0.5)) [2]: 0.487

CTACAATC (double strand) [8-mer CTACAATC]
binding signal (PBM E-score (-0.5 to 0.5)) [8]: 0.466

GGGGCCTA (double strand) [8-mer GGGGCCTA]
binding signal (PBM E-score (-0.5 to 0.5)) [2]: 0.487

AGCCCCCC (double strand) [8-mer AGCCCCCC]
binding signal (PBM E-score (-0.5 to 0.5)) [2]: 0.491

AGTCACAA (double strand) [8-mer AGTCACAA]
binding signal (PBM E-score (-0.5 to 0.5)) [3]: 0.498 | binding signal (PBM E-score (-0.5 to 0.5)) [4]: 0.497 | binding signal (PBM E-score (-0.5 to 0.5)) [5]: 0.489

CGGCTACA (double strand) [8-mer CGGCTACA]
binding signal (PBM E-score (-0.5 to 0.5)) [7]: 0.488

ACACAAAA (double strand) [8-mer ACACAAAA]
binding signal (PBM E-score (-0.5 to 0.5)) [4]: 0.465

AGGGGCCA (double strand) [8-mer AGGGGCCA]
binding signal (PBM E-score (-0.5 to 0.5)) [2]: 0.492

AGGCTACA (double strand) [8-mer AGGCTACA]
binding signal (PBM E-score (-0.5 to 0.5)) [7]: 0.488

GGGGGCCA (double strand) [8-mer GGGGGCCA]
binding signal (PBM E-score (-0.5 to 0.5)) [2]: 0.495

CGACTACA (double strand) [8-mer CGACTACA]
binding signal (PBM E-score (-0.5 to 0.5)) [7]: 0.487

AAATTGTA (double strand) [8-mer AAATTGTA]
binding signal (PBM E-score (-0.5 to 0.5)) [8]: 0.456

GCTACAAA (double strand) [8-mer GCTACAAA]
binding signal (PBM E-score (-0.5 to 0.5)) [9]: 0.482 | binding signal (PBM E-score (-0.5 to 0.5)) [7]: 0.489 | binding signal (PBM E-score (-0.5 to 0.5)) [8]: 0.462

ATACAATA (double strand) [8-mer ATACAATA]
binding signal (PBM E-score (-0.5 to 0.5)) [8]: 0.461

AATGTCAT (double strand) [8-mer AATGTCAT]
binding signal (PBM E-score (-0.5 to 0.5)) [6]: 0.487

GTCATCAC (double strand) [8-mer GTCATCAC]
binding signal (PBM E-score (-0.5 to 0.5)) [6]: 0.492

AGGTCACA (double strand) [8-mer AGGTCACA]
binding signal (PBM E-score (-0.5 to 0.5)) [3]: 0.486 | binding signal (PBM E-score (-0.5 to 0.5)) [4]: 0.455 | binding signal (PBM E-score (-0.5 to 0.5)) [5]: 0.486

GACTACAC (double strand) [8-mer GACTACAC]
binding signal (PBM E-score (-0.5 to 0.5)) [9]: 0.484 | binding signal (PBM E-score (-0.5 to 0.5)) [7]: 0.49

GTCACAAA (double strand) [8-mer GTCACAAA]
binding signal (PBM E-score (-0.5 to 0.5)) [3]: 0.498 | binding signal (PBM E-score (-0.5 to 0.5)) [4]: 0.497 | binding signal (PBM E-score (-0.5 to 0.5)) [5]: 0.48

ATGGCCCC (double strand) [8-mer ATGGCCCC]
binding signal (PBM E-score (-0.5 to 0.5)) [2]: 0.487

GGCCCCCC (double strand) [8-mer GGCCCCCC]
binding signal (PBM E-score (-0.5 to 0.5)) [2]: 0.498

TGACTACA (double strand) [8-mer TGACTACA]
binding signal (PBM E-score (-0.5 to 0.5)) [7]: 0.491

TACTACAA (double strand) [8-mer TACTACAA]
binding signal (PBM E-score (-0.5 to 0.5)) [8]: 0.474
